In patent publication US20250154279A1 (BEIGENE, published 2025):

Legend:
mouse CD137 = biological target: T1, mouse CD137 (mouse, UniProt P20334 24-187, limits assumed); assay: antigen ELISA
T1 construct: Coated antigen in ELISA; construct not described
T1 sequence (looked up): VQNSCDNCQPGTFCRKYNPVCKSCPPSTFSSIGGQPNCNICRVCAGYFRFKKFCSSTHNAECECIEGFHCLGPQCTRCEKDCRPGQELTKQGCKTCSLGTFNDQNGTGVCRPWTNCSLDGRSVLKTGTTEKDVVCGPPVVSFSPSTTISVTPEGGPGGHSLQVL
Procedure: (§1) For antigen ELISA, a Maxisorp immunoplate was coated with antigens and blocked with 3% BSA (w/v) in PBS buffer (blocking buffer). Monoclonal VHH antibodies were blocked with blocking buffer for 30 minutes and added to wells of the ELISA plate for 1 hour. After washes with PBST, bound antibodies were detected using HRP-conjugated anti-human IgG antibody (Sigma, A0170) and 3,3′,5,5′-tetramethylbenzidine substrate (Cat.: 00-4201-56, eBioscience, USA). Ligand competition was also applied in a ELISA assay.

huCD137-his = biological target: T2, huCD137-his; assay: antigen ELISA, coated huCD137-his, detection with HRP anti-human IgG, single antibody concentration not given; competitor where added: 20 ug/ml CD137L
T2 construct: The sheet prints only 'huCD137-his'; also called human CD137-ECD-his
T2 extracellular domain with C-terminal His tag: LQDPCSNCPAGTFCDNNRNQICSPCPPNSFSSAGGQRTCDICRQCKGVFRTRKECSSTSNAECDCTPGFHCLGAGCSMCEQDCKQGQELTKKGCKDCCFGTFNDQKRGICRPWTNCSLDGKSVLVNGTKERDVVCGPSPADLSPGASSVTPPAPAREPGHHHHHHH
Procedure: as §1

human CD137 ECD-mIgG2a = biological target: T3, human CD137 ECD-mIgG2a (human); assay: antigen ELISA, coated huCD137-mIgG2a, detection with HRP anti-human IgG, single antibody concentration not given; competitor where added: 20 ug/ml CD137L
T3 construct: also called huCD137
Procedure: as §1

binding result (mouse CD137): no binding | binding result (huCD137-his): binds | binding result (human CD137 ECD-mIgG2a): binds
B1: BGA-9612 VHH-Fc (camelid anti-huCD137 VHH fused at the N terminal of human IgG1 Fc-null with a G4S linker) (VHH)
VHH: QVQLVESGGGTVQPGDSLRLSCAASGRTFDNYAVGWFRQAPGKERQYVGTYWSGYAHYGDFENNRFTISRDNAKNTVYLQMDNLKPEDTAVYYCAISLKYPMATVTPDYQGQGTQVTVSS
